Test results: US20060058231A1 (Xencor, published 2006)

Columns and labels:
[1] = biological target: T1, BMPRII receptor/Fc fusion (R&D Systems) (UniProt Q13873 27-151, limits assumed); experiment: plate direct binding assay, receptor-Fc detection, 12-point dilution of conditioned media
T1 construct: not shown: Fc portion of the fusion
T1 sequence (looked up): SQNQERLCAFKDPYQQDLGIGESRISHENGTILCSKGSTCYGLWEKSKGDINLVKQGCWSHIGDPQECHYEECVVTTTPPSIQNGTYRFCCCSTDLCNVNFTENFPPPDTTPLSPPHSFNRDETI
Procedure: (§1) The affinity of human and variant BMP-7 for several BMP receptors (ActRIa, BMPRIb, ActRIIa, and BMPRII) was measured using an ELISA-like assay, described below. 96-well plates were coated with a capture antibody (R&D Systems BMP-7 ELISA Duoset DY354, part #840971) by diluting the antibody to 2 μg/mL in PBS, applying 50 μL/well, and incubating overnight or over the weekend at 4° C., in a humidified chamber. Excess liquid was removed from each plate. The plates were blocked by adding 175 μL blocking solution (1% BSA and 5% sucrose in PBS) to each well and incubating 1-2 hours at room temperature in a humidified chamber. The plates were then washed using an automated plate washer. 50 μL of BMP-7 containing solution (for example, diluted conditioned media obtained from the BMP-7 expression protocol above, or purified recombinant human BMP-7 of a known concentration) was added to each well and incubated 1.5-2 hours at room temperature in a humidified chamber. The plates were then washed using an automated plate washer. 50 μL of 5 μg/mL BMP receptor-Fc fusion in PBS was added to each well and incubated 1.5 hours at room temperature in a humidified chamber. The plates were then washed using an automated plate washer. 50 μL of 1:10,000 diluted anti-human IgG-HRP conjugate in secondary antibody dilution buffer (1% BSA in PBS, filtered through a 0.2 […] filter) was added to each well and incubated 30 minutes at room temperature in a humidified chamber. The plates were then washed using an automated plate washer. 50 μL of pre-mixed TMB substrate (BD Pharmingen #555214) was added to each well and incubated for 10-20 minutes at room temperature in the dark. 25 μL of 2N H₂SO₄ was added to each well. Absorbance readings at 450 nm were taken using a 540 nm wavelength correction.
(§2) To further characterize receptor binding, dose-response binding assays, using 12-point serial dilutions from conditioned media, were conducted for selected Library 1 variants.

[2] = biological target: T2, anti-BMP-7 antibodies of the commercial ELISA (R&D Systems ELISA Duoset Cat#DY354); experiment: sandwich ELISA (R&D Systems BMP7 ELISA Cat#DY354), BMP-7 protein titrated, % ELISA signal; the EC50 column carries no unit, the concentration axis is in ug/mL
T2 construct: also called antibody; ELISA antibody

[3] = biological target: T3, BMPRII receptor-Fc fusion (UniProt Q13873 27-151, limits assumed); experiment: ELISA-like, fixed volume of conditioned media, receptor-Fc
T3 construct: BMP receptor-Fc fusion, detected with anti-human IgG-HRP
T3 sequence (looked up): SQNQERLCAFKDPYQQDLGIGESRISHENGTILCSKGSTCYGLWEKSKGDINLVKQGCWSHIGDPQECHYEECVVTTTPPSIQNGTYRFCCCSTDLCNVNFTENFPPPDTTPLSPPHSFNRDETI

[4] = biological target: T4, BMPRIa receptor-Fc fusion (UniProt P36894 24-152, limits assumed); experiment: as above
T4 construct: BMP receptor-Fc fusion; also called ALK-3

[5] = biological target: T5, ActRIIa receptor-Fc fusion (UniProt P27037 20-134, limits assumed); experiment: as above
T5 construct: BMP receptor-Fc fusion, detected with anti-human IgG-HRP

[6] = biological target: T6, BMPRIb receptor-Fc fusion (UniProt O00238 14-126); experiment: as above
T6 construct: BMP receptor-Fc fusion, detected with anti-human IgG-HRP; also called ALK-6
T6 sequence (looked up): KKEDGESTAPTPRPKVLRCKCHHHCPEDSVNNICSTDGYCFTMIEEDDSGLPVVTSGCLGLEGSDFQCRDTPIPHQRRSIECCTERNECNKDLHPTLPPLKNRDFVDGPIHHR

[7] = biological target: T7, ActRIIa receptor/Fc fusion (R&D Systems) (UniProt P27037 20-134, limits assumed); experiment: plate direct binding assay, receptor-Fc detection, 12-point dilution of conditioned media
T7 construct: not shown: Fc portion of the fusion
Procedure: as §1, §2

[8] = biological target: T8, noggin Fc fusion (R&D Systems) (UniProt Q13253 28-232, limits assumed); experiment: AlphaScreen competition against biotinylated Y65N/S120D BMP-7
T8 construct: Bought noggin/Fc fusion; not shown: Fc part of the bought fusion
T8 sequence (looked up): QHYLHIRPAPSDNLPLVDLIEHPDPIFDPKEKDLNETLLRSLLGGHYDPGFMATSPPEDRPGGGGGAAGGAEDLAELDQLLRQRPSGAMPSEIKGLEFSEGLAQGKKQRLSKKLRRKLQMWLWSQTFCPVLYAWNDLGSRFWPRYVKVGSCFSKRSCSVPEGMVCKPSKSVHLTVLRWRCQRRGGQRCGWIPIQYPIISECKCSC
Procedure: (§3) The Y65N/S120D variant of BMP-7 was also biotinylated for use in AlphaScreen assays using NHS-biotin. Bioactivity of the biotinylated protein was confirmed. AlphaScreen assays were performed to determine the binding affinity of selected BMP-7 variants for Fc fusions of the receptors BMPRIa, BMPRIb, ActRIIa, and BMPRII and the inhibitor noggin (R&D Systems). AlphaScreen assays were also performed to determine the affinity of selected variants for an anti-BMP-7 monoclonal antibody (R&D Systems mAb 3541). In all cases, 12-point binding curves were obtained in triplicate. Each data point corresponds to the luminescence produced from a solution comprising 10 uL of serially diluted BMP-7 variant, 10 uL receptor, inhibitor, or antibody, 10 uL biotinylated BMP-7, 10 uL AlphaScreen™ acceptor beads, and 10 uL AlphaScreen™ donor beads. Prism was used to calculate EC50 values for selected experiments.

[9] = biological target: T9, ActRIIa Fc fusion (R&D Systems) (UniProt P27037 20-134, limits assumed); experiment: as above
T9 construct: Bought receptor/Fc fusion; not shown: Fc part of the bought fusion
Procedure: as §3

[10] = biological target: T10, BMPRIb Fc fusion (R&D Systems) (UniProt O00238 14-126); experiment: as above
T10 construct: Bought receptor/Fc fusion; also called ALK-6; not shown: Fc part of the bought fusion
T10 sequence (looked up): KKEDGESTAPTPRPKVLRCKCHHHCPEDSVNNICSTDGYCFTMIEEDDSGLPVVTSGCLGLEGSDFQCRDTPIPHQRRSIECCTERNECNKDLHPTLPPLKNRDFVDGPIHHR
Procedure: as §3

[11] = biological target: T11, BMPRII Fc fusion (R&D Systems) (UniProt Q13873 27-151, limits assumed); experiment: as above
T11 construct: Bought receptor/Fc fusion; not shown: Fc part of the bought fusion
T11 sequence (looked up): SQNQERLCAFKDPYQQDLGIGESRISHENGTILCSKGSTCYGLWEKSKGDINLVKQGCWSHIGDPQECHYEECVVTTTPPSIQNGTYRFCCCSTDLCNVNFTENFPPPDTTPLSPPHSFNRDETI
Procedure: as §3

[12] = biological target: T8, noggin Fc fusion (R&D Systems); experiment: AlphaScreen competition; EC50 relative to wild type BMP-7 (R&D Systems)
Procedure: as §3

[13] = biological target: T9, ActRIIa Fc fusion (R&D Systems); experiment: as above
Procedure: as §3

[14] = biological target: T10, BMPRIb Fc fusion (R&D Systems); experiment: as above
Procedure: as §3

[15] = biological target: T11, BMPRII Fc fusion (R&D Systems); experiment: as above
Procedure: as §3

T9 sequence (P27037 20-134 limits assumed): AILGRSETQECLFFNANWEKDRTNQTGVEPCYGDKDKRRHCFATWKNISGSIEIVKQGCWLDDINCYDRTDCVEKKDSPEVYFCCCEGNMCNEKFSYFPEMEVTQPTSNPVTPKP
T5 sequence (P27037 20-134 limits assumed): as above
T7 sequence (P27037 20-134 limits assumed): as above
T4 sequence (P36894 24-152 limits assumed): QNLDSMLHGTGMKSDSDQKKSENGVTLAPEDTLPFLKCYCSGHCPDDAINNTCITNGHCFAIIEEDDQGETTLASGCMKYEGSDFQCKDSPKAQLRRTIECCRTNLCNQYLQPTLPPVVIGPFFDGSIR

B1: BMP-7 variant Q53H (ligand)
chain: STGGKQRSQNRSKTPKNQEALRMASVAENSSSDQRQACKKHELYVSFRDLGWHDWIIAPEGYAAYYCEGECAFPLNSYMNATNHAIVQTLVHFINPETVPKPCCAPTQLNAISVLYFDDSSNVILKKYRNMVVRACGCH
With B1 the “fold reduced affinity relative to wild type” value [1] was about 10 fold.

B2: BMP-7 variant 526 (K39S/S120D/R134E) (ligand)
chain: STGGKQRSQNRSKTPKNQEALRMASVAENSSSDQRQACSKHELYVSFRDLGWQDWIIAPEGYAAYYCEGECAFPLNSYMNATNHAIVQTLVHFINPETVPKPCCAPTQLNAISVLYFDDDSNVILKKYRNMVVEACGCH
notes: Purified variant; also called v526
With B2 the EC50 [2] was 0.00119 mg/L.

B3: BMP-7 variant S77T (ligand)
chain: STGGKQRSQNRSKTPKNQEALRMASVAENSSSDQRQACKKHELYVSFRDLGWQDWIIAPEGYAAYYCEGECAFPLNTYMNATNHAIVQTLVHFINPETVPKPCCAPTQLNAISVLYFDDSSNVILKKYRNMVVRACGCH
For B3, the “BMPRII binding relative to wild type” value [3] was 0.93 relative to wt = 1.0, the “BMPRIa binding relative to wild type” value [4] was 0.94 relative to wt = 1.0 and the “ActRIIa binding relative to wild type” value [5] was 0.99 relative to wt = 1.0. For the same binder, the “BMPRIb binding relative to wild type” value [6] was 0.9 relative to wt = 1.0.

B4: BMP-7 variant M23N (ligand)
chain: STGGKQRSQNRSKTPKNQEALRNASVAENSSSDQRQACKKHELYVSFRDLGWQDWIIAPEGYAAYYCEGECAFPLNSYMNATNHAIVQTLVHFINPETVPKPCCAPTQLNAISVLYFDDSSNVILKKYRNMVVRACGCH
B4 was tested, and the “fold increased affinity relative to wild type” value [7] was about 10 fold.

B5: BMP-7 variant 504 (Y65N/S120D) (ligand)
chain: STGGKQRSQNRSKTPKNQEALRMASVAENSSSDQRQACKKHELYVSFRDLGWQDWIIAPEGYAANYCEGECAFPLNSYMNATNHAIVQTLVHFINPETVPKPCCAPTQLNAISVLYFDDDSNVILKKYRNMVVRACGCH
notes: Expressed from the full-length Image clone and processed to the mature dimer; Purified from conditioned media on SP-sepharose; also called v504
With B5 the EC50 [8] was 3.4 mg/L, the EC50 [9] was 0.0475 mg/L and the EC50 [10] was 0.0185 mg/L. The EC50 [11] was 0.222 mg/L, the “Fold change vs. wt” value [12] was 1.19 fold and the “Fold change vs. wt” value [13] was 0.445 fold. For the same binder, the “Fold change vs. wt” value [14] was 0.371 fold and the “Fold change vs. wt” value [15] was 0.969 fold.

B6: BMP-7 variant 565 (Y65N/F93T/R129D) (ligand)
chain: STGGKQRSQNRSKTPKNQEALRMASVAENSSSDQRQACKKHELYVSFRDLGWQDWIIAPEGYAANYCEGECAFPLNSYMNATNHAIVQTLVHTINPETVPKPCCAPTQLNAISVLYFDDSSNVILKKYDNMVVRACGCH
notes: Purified variant; also called v565
B6 showed an EC50 [2] of 0.00688 mg/L.

B7: BMP-7 variant I86D (ligand)
chain: STGGKQRSQNRSKTPKNQEALRMASVAENSSSDQRQACKKHELYVSFRDLGWQDWIIAPEGYAAYYCEGECAFPLNSYMNATNHADVQTLVHFINPETVPKPCCAPTQLNAISVLYFDDSSNVILKKYRNMVVRACGCH
B7 was tested, and the “fold reduced affinity relative to wild type” value [1] was about 10 fold.
